For this assay, the target named is Human ROR1-ECD (human, UniProt Q01973 30-406). Kind of assay: BLI (Fortebio).
Chain of Human ROR1-ECD (Q01973 30-406): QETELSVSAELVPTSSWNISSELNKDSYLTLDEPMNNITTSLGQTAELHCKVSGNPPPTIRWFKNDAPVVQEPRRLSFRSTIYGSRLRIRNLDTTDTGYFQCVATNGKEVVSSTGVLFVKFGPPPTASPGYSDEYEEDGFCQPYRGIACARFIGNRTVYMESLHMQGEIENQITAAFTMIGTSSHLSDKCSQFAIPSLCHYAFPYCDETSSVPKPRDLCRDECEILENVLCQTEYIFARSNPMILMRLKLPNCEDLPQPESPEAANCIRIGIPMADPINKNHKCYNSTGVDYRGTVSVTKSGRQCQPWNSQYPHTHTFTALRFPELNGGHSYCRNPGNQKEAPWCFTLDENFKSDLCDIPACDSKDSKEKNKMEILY

B1: anti-ROR1 antibody clone G3 (antibody, V domains shown)
VH: QVQLQQWGAGLLKPSETLSLTCAVYGGSFSGYYWSWIRQPPGKGLEWIGEINHSGSTSYNPSLKSRVTISVDTSKNQFSLKLSSVTAADTAVYYCARGHSSGWYRRYFDLWGRGTLVTVSS
VL: EIVLTQSPATLSLSPGERATLSCRASQSVSSYLAWYQQKPGQAPRLLIYDASNRATGIPAKFSGSGSGTDFTLTISSLEPEDFAVYYCQQRSNWPPTFGGGTKVEIK
Usually Kd stands for the constant that tells how readily two partners part at equilibrium. Low readings indicate higher affinity, high ones lower affinity. Take B1: binding was put at a Kd of 4.48 nM.

B2: anti-ROR1 antibody clone C3 (antibody, V domains shown)
VH: QVQLQESGPGLVKPSETLSLTCTVSGGSISSYYWSWIRQLPGKGLEWIGYMHYSGSTSYNPSLKGRLTISVDTSTNQFSLKLGSVTAADTAVYYCARYYYHDSSGYYSYFDYWGQGTLVTVSS
VL: EIVLTQSPGTLSLSPGERATLSCRASQSVSSYLAWYQQKAGQAPRLLIYDASNRASGIPARFSGSGSGTDFTLTISSLEPEDFAVYYCQQRSNWPPTFGGGTKVEIK
As for B2, binding was put at a Kd of 3.25 nM.

B3: anti-ROR1 antibody clone G6 (antibody, V domains shown)
VH: EVQLVESGGGVVQPGGSLRLSCAASGFTFDDYAMHWVRQAPGKGLEWVSLISGDGGSTYYADSVKGRFTISRDNAKNSLYLQMNSLRAEDTAVYYCARDNWNDVYYYYGMDVWGQGTTVTVSS
VL: DIQLTQSPSSLSASIGDTVTISCQASRDISDYLNWYQHKPGKAPKLLIYDASNLATGVPSRFSGSGSGTDFTLTIKSLQPEDVATYFCQQDDLLPLTFGGGTKVDIK
Molecule B3 displayed a Kd of 43.7 nM.

These data come from US20220356246A1 (published 2022).
